Results taken from the Human Domainome abundance scans (Beltran et al. 2025).
± gives the uncertainty stated by the source.

Test: abundance fitness (aPCA) (normalised: wild type 0, dead -1); higher = more abundant; growth selection in yeast, the domain comes from the species named
Details: Homo sapiens

Substance	abundance fitness
Lipoamide acyltransferase component of branched-chain alpha-keto acid dehydrogenase complex, mitochondrial T174G, P11182	-0.39 ± 0.038
Lipoamide acyltransferase component of branched-chain alpha-keto acid dehydrogenase complex, mitochondrial L172C, P11182	-0.243 ± 0.079
Lipoamide acyltransferase component of branched-chain alpha-keto acid dehydrogenase complex, mitochondrial D204E, P11182	-0.771 ± 0.1
Lipoamide acyltransferase component of branched-chain alpha-keto acid dehydrogenase complex, mitochondrial A173S, P11182	-0.186 ± 0.046
Lipoamide acyltransferase component of branched-chain alpha-keto acid dehydrogenase complex, mitochondrial P175E, P11182	0.037 ± 0.047
Lipoamide acyltransferase component of branched-chain alpha-keto acid dehydrogenase complex, mitochondrial L188K, P11182	-0.578 ± 0.052
Lipoamide acyltransferase component of branched-chain alpha-keto acid dehydrogenase complex, mitochondrial K211S, P11182	-0.044 ± 0.04
Lipoamide acyltransferase component of branched-chain alpha-keto acid dehydrogenase complex, mitochondrial T213L, P11182	-0.185 ± 0.056
Lipoamide acyltransferase component of branched-chain alpha-keto acid dehydrogenase complex, mitochondrial R178P, P11182	-1.38 ± 0.33
Lipoamide acyltransferase component of branched-chain alpha-keto acid dehydrogenase complex, mitochondrial N184W, P11182	-0.179 ± 0.1
Lipoamide acyltransferase component of branched-chain alpha-keto acid dehydrogenase complex, mitochondrial L172M, P11182	-0.063 ± 0.048
Lipoamide acyltransferase component of branched-chain alpha-keto acid dehydrogenase complex, mitochondrial K196R, P11182	-0.026 ± 0.039
Lipoamide acyltransferase component of branched-chain alpha-keto acid dehydrogenase complex, mitochondrial K196A, P11182	-0.054 ± 0.037
Nanos homolog 2 D106A, P60321	-0.206 ± 0.098
Lipoamide acyltransferase component of branched-chain alpha-keto acid dehydrogenase complex, mitochondrial A176Q, P11182	0.017 ± 0.058
Lipoamide acyltransferase component of branched-chain alpha-keto acid dehydrogenase complex, mitochondrial Q212T, P11182	0.017 ± 0.06
Lipoamide acyltransferase component of branched-chain alpha-keto acid dehydrogenase complex, mitochondrial E203P, P11182	-0.173 ± 0.059
Lipoamide acyltransferase component of branched-chain alpha-keto acid dehydrogenase complex, mitochondrial L180V, P11182	-0.222 ± 0.039
Lipoamide acyltransferase component of branched-chain alpha-keto acid dehydrogenase complex, mitochondrial Q212S, P11182	0.004 ± 0.04
Lipoamide acyltransferase component of branched-chain alpha-keto acid dehydrogenase complex, mitochondrial L201K, P11182	-0.256 ± 0.056
Lipoamide acyltransferase component of branched-chain alpha-keto acid dehydrogenase complex, mitochondrial T174W, P11182	-0.787 ± 0.045
Lipoamide acyltransferase component of branched-chain alpha-keto acid dehydrogenase complex, mitochondrial I186D, P11182	-0.81 ± 0.077
Lipoamide acyltransferase component of branched-chain alpha-keto acid dehydrogenase complex, mitochondrial G195Q, P11182	-0.483 ± 0.067
Lipoamide acyltransferase component of branched-chain alpha-keto acid dehydrogenase complex, mitochondrial E190M, P11182	-0.147 ± 0.049
Lipoamide acyltransferase component of branched-chain alpha-keto acid dehydrogenase complex, mitochondrial E203H, P11182	-0.124 ± 0.059

Substance	abundance fitness
Lipoamide acyltransferase component of branched-chain alpha-keto acid dehydrogenase complex, mitochondrial E203Q, P11182	-0.104 ± 0.058
Lipoamide acyltransferase component of branched-chain alpha-keto acid dehydrogenase complex, mitochondrial L209N, P11182	-0.138 ± 0.073
Lipoamide acyltransferase component of branched-chain alpha-keto acid dehydrogenase complex, mitochondrial R179K, P11182	-0.021 ± 0.052
Lipoamide acyltransferase component of branched-chain alpha-keto acid dehydrogenase complex, mitochondrial L206F, P11182	-0.353 ± 0.36
Lipoamide acyltransferase component of branched-chain alpha-keto acid dehydrogenase complex, mitochondrial Q212K, P11182	0.007 ± 0.061
Lipoamide acyltransferase component of branched-chain alpha-keto acid dehydrogenase complex, mitochondrial G195P, P11182	-0.682 ± 0.07
Lipoamide acyltransferase component of branched-chain alpha-keto acid dehydrogenase complex, mitochondrial E190Q, P11182	-0.069 ± 0.059
Lipoamide acyltransferase component of branched-chain alpha-keto acid dehydrogenase complex, mitochondrial N184E, P11182	-0.859 ± 0.39
Lipoamide acyltransferase component of branched-chain alpha-keto acid dehydrogenase complex, mitochondrial K187A, P11182	-0.14 ± 0.04
Lipoamide acyltransferase component of branched-chain alpha-keto acid dehydrogenase complex, mitochondrial D204L, P11182	-1.26 ± 0.1
Lipoamide acyltransferase component of branched-chain alpha-keto acid dehydrogenase complex, mitochondrial K211W, P11182	-0.206 ± 0.047
Lipoamide acyltransferase component of branched-chain alpha-keto acid dehydrogenase complex, mitochondrial Q212M, P11182	-0.108 ± 0.049
Lipoamide acyltransferase component of branched-chain alpha-keto acid dehydrogenase complex, mitochondrial G214R, P11182	-0.002 ± 0.039
Lipoamide acyltransferase component of branched-chain alpha-keto acid dehydrogenase complex, mitochondrial K187L, P11182	-0.126 ± 0.053
Lipoamide acyltransferase component of branched-chain alpha-keto acid dehydrogenase complex, mitochondrial R179S, P11182	-0.212 ± 0.057
Lipoamide acyltransferase component of branched-chain alpha-keto acid dehydrogenase complex, mitochondrial V192A, P11182	-0.009 ± 0.045
Lipoamide acyltransferase component of branched-chain alpha-keto acid dehydrogenase complex, mitochondrial P175I, P11182	-0.133 ± 0.065
Lipoamide acyltransferase component of branched-chain alpha-keto acid dehydrogenase complex, mitochondrial D197T, P11182	-0.45 ± 0.06
Lipoamide acyltransferase component of branched-chain alpha-keto acid dehydrogenase complex, mitochondrial N207Y, P11182	-0.453 ± 0.23
Lipoamide acyltransferase component of branched-chain alpha-keto acid dehydrogenase complex, mitochondrial T213M, P11182	-0.122 ± 0.097
Lipoamide acyltransferase component of branched-chain alpha-keto acid dehydrogenase complex, mitochondrial T213K, P11182	0.145 ± 0.071
Lipoamide acyltransferase component of branched-chain alpha-keto acid dehydrogenase complex, mitochondrial E190Y, P11182	-0.349 ± 0.05
Lipoamide acyltransferase component of branched-chain alpha-keto acid dehydrogenase complex, mitochondrial T171R, P11182	-0.578 ± 0.058
Lipoamide acyltransferase component of branched-chain alpha-keto acid dehydrogenase complex, mitochondrial N185M, P11182	-0.273 ± 0.18
